Data as given in article PMC10002499.

Assays:
[1] = target: annexin A2 (amino terminus) construct (rat); assay: SPR; 0 added Ca2+; conditions: domain or fragment
[2] = target: dysferlin C2F domain (Rattus norvegicus); assay: SPR; Biacore 3000, 25 °C; His6 fusion ligand amine-coupled on a CM5 chip (dysferlin C2 domain as ligand, partner as analyte, per Figure 2 'ligand:analyte'); analyte typically 0–320 nM, including reversal of ligand and analyte; 1:1 Langmuir model; Ca2+ level of the KD values of Table 1 not given
Sequence of dysferlin C2F domain (Rattus norvegicus) (Q9ESD7 1805-1953): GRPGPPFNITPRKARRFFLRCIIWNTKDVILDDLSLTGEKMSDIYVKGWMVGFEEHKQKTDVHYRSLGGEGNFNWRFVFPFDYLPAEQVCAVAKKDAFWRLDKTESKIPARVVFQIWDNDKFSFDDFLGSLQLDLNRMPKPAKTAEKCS

[3] = target: dysferlin canonical C2A domain, construct 3 (aa 19-134) (Rattus norvegicus); assay: as above
Sequence of dysferlin canonical C2A domain, construct 3 (aa 19-134) (Rattus norvegicus) (Q9ESD7 other isoform, or with tags, fused parts or gaps): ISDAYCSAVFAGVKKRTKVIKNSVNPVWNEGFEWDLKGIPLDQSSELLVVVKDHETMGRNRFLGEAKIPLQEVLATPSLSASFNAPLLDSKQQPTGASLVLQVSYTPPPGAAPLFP

[4] = target: annexin A2 (amino terminus) construct (rat); assay: SPR; without Ca2+; conditions: domain or fragment
[5] = target: annexin A2 (amino terminus) construct (rat); assay: SPR; 100 uM Ca2+; conditions: domain or fragment

Sequence of annexin A2 (amino terminus) construct (rat) (Q07936 2-339): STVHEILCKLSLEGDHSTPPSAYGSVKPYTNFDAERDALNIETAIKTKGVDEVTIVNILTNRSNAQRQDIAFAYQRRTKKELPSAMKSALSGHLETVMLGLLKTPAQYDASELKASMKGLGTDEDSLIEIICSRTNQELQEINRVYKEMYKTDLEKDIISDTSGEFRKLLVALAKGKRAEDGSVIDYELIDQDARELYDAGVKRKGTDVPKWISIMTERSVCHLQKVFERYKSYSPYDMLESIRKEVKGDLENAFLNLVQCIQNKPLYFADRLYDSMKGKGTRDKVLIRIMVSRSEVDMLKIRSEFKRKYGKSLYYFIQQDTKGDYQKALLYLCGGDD
Sequence of caveolin-3 construct (domain or fragment) (P51638 whole entry, the tested form may be a part): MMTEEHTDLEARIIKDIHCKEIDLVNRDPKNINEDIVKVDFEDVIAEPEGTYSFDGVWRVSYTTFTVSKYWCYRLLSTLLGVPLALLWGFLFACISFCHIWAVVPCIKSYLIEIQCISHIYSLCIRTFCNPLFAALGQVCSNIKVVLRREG
Sequence of syntaxin-4 construct (domain or fragment) (Q08850 whole entry, the tested form may be a part): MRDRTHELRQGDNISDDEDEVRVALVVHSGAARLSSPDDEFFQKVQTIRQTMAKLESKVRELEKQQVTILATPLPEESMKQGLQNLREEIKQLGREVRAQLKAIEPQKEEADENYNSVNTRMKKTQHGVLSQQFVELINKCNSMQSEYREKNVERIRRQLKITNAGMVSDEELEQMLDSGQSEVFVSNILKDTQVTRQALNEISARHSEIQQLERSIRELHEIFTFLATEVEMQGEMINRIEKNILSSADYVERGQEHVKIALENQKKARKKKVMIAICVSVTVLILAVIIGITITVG
Sequence of calpain-3 construct (domain or fragment) (P16259 whole entry, the tested form may be a part): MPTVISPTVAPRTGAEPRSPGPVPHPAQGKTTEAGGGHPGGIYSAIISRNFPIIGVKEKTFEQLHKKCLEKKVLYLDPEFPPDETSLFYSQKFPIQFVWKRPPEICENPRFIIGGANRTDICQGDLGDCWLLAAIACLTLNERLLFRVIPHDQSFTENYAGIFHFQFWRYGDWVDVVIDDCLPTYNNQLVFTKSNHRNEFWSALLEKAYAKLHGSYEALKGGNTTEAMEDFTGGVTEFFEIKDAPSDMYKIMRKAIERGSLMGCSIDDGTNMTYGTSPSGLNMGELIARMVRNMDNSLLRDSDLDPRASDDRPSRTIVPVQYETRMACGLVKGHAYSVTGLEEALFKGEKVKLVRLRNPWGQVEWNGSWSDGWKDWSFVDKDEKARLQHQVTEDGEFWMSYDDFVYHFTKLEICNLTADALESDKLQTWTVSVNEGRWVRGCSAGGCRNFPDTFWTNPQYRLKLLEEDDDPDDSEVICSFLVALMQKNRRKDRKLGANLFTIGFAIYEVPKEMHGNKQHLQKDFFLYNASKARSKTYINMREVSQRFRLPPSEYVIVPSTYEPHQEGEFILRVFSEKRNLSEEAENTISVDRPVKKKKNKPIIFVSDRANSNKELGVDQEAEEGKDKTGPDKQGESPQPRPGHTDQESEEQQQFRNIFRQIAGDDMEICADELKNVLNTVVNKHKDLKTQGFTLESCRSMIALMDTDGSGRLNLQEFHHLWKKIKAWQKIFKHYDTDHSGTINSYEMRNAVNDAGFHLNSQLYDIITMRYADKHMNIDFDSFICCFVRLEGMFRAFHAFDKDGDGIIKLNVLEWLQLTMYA
Sequence of annexin A1 construct (domain or fragment) (P07150 2-346): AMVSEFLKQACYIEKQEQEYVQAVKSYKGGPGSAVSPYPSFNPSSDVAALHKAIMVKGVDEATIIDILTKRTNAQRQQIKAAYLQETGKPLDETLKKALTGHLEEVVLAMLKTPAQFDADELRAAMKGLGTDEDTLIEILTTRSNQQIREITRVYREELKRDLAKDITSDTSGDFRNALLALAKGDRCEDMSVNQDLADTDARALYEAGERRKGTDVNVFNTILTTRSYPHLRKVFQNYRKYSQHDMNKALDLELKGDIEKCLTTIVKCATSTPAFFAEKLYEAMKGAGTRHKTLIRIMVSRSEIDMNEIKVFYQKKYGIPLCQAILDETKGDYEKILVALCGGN
Sequence of mitsugumin-53 construct (domain or fragment) (A0JPQ4 whole entry, the tested form may be a part): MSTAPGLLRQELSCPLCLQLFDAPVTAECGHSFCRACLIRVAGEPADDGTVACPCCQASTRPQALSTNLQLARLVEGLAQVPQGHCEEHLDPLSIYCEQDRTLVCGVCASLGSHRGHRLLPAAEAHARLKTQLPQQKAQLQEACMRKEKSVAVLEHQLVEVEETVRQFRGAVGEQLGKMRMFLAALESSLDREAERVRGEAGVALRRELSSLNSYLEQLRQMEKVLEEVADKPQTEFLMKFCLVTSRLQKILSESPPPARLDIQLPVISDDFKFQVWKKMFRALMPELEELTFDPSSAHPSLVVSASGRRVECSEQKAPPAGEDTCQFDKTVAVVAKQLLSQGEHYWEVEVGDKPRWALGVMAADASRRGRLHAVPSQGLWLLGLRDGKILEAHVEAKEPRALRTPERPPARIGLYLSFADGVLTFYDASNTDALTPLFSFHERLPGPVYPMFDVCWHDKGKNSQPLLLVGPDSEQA

Kd [2] | Kd [3] | Substance | also measured
– | – | dysferlin canonical C2A domain, construct 3 (aa 19-134) | Kd [1]: 190 nM
400 nM | 41000 nM | affixin (beta-parvin) construct (domain or fragment) | –
330 nM | 25 nM | annexin A1 construct (domain or fragment) | –
– | – | dysferlin canonical C2A domain, construct 1 (aa 1-152 plus 24 aa) | Kd [4]: 101 nM; Kd [5]: 23.6 nM
110 nM | 33 nM | caveolin-3 construct (domain or fragment) | –
130 nM | 4400 nM | syntaxin-4 construct (domain or fragment) | –
– | 380 nM | AHNAK1 construct, the final 500 amino acids (domain or fragment) | –
– | 470 nM | mitsugumin-53 construct (domain or fragment) | –
2.2 nM | 1200 nM | calpain-3 construct (domain or fragment) | –
